Patent publication US20180282393A1 (IMMATICS BIOTECHNOLOGIES, published 2018)

biological target: T1, HLA-A*02:01 (human); experiment: UV-ligand exchange, anti-b2m ELISA; peptide exchange yield grade (+ >=10%, ++ >=20%, +++ >=50, ++++ >=75%)
T1 construct: Captured on streptavidin plates and detected with anti-b2m; also called peptide-receptive MHC molecules; MHC class I
Source text: Candidate peptides for T cell based therapies according to the present invention were further tested for their MHC binding capacity (affinity). The individual peptide-MHC complexes were produced by UV-ligand exchange, where a UV-sensitive peptide is cleaved upon UV-irradiation, and exchanged with the peptide of interest as analyzed. Only peptide candidates that can effectively bind and stabilize the peptide-receptive MHC molecules prevent dissociation of the MHC complexes. To determine the yield of the exchange reaction, an ELISA was performed based on the detection of the light chain (β2m) of stabilized MHC complexes. The assay was performed as generally described in Rodenko et al. (Rodenko et al., 2006).
96 well MAXISorp plates (NUNC) were coated over night with 2 ug/ml streptavidin in PBS at room temperature, washed 4× and blocked for 1 h at 37° C. in 2% BSA containing blocking buffer. Refolded HLA-A*02:01/MLA-001 monomers served as standards, covering the range of 15-500 ng/ml. Peptide-MHC monomers of the UV-exchange reaction were diluted 100 fold in blocking buffer. Samples were incubated for 1 h at 37° C., washed four times, incubated with 2 ug/ml HRP conjugated anti-β2m for 1 h at 37° C., washed again and detected with TMB solution that is stopped with […]. Absorption was measured at 450 nm. Candidate peptides that show a high exchange yield (preferably higher than 50%, most preferred higher than 75%) are generally preferred for a generation and production of antibodies or fragments thereof, and/or T cell receptors or fragments thereof, as they show sufficient avidity to the MHC molecules and prevent dissociation of the MHC complexes.

| peptide exchange yield | Binder |
| --- | --- |
| 50 to 75% | ALLDGGSEAYWRV |
| 20 to 50% | SILRHVAEV |
| 50 to 75% | AVLPHVDQV |
| 50 to 75% | VLINTSVTL |
| 20 to 50% | KVANIIAEV |
| ≥ 75% | KLIDDVHRL |
| 20 to 50% | VLVPYEPPQV |
| 50 to 75% | SIYEYYHAL |
| ≥ 75% | NIIELVHQV |
| 50 to 75% | HLLGHLEQA |
| 50 to 75% | KVADYIPQL |
| 50 to 75% | SLDENSDQQV |
| 20 to 50% | ALQEALENA |
| 20 to 50% | GQDVGRYQV |
| 20 to 50% | SLADSLYNL |
| 50 to 75% | SLAESLDQA |
| 50 to 75% | KITEAIQYV |
| 50 to 75% | HLIAEIHTA (also called PTHL-001) |
| 50 to 75% | ILASLATSV |
| 50 to 75% | ALADGVVSQA |
| 50 to 75% | FLDNGPKTI |
